From US20260209348A1 (University of California, published 2026)
Numbering of substitutions follows the chain as printed. Where two headings read alike, the source gives them in different places. Values belong to the binder of their own block, whether it stands above or below them.

What was measured:
human ROR2 [1] = target: T1, human ROR2 (human, UniProt Q01974 34-403, limits assumed); test: SPR
Outline: (§1)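 Using surface plasmon resonance, the dissociation constant (Kd, nM) was determined for binding of humanized anti-human ROR2 monoclonal antibodies to human ROR2. These antibodies carry murine complementarity-determining regions in human acceptor frameworks and a human IgG1 constant region. No antigen format, concentrations, temperature, buffer or replicate count is stated.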

human ROR2 [2] = target: T1, human ROR2; test: SPR; remark: listed apart in the source
Outline: as §1

recombinant ROR1 = recombinant ROR1 (Homo sapiens (Human), UniProt Q01973 30-406); test: dot blot on nylon membrane, anti-human IgG-HRP
Chain of recombinant ROR1 (Q01973 30-406 limits assumed): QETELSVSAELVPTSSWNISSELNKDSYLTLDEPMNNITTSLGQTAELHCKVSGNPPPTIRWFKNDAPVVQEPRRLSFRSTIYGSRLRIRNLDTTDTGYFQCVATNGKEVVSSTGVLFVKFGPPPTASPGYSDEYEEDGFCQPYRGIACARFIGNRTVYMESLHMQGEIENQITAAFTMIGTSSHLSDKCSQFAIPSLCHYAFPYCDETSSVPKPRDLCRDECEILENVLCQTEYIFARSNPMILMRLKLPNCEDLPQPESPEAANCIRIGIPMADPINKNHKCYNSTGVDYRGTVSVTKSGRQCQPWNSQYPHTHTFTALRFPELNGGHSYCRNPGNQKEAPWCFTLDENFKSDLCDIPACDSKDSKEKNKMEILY

[3] = target: T2, recombinant mouse ROR2 (extracellular portion) (mouse, UniProt Q9Z138 34-403); test: dot blot on nylon membrane, anti-human IgG-HRP
T2 construct: also called mROR2
T2 sequence (Q9Z138 other isoform, or with tags, fused parts or gaps limits assumed): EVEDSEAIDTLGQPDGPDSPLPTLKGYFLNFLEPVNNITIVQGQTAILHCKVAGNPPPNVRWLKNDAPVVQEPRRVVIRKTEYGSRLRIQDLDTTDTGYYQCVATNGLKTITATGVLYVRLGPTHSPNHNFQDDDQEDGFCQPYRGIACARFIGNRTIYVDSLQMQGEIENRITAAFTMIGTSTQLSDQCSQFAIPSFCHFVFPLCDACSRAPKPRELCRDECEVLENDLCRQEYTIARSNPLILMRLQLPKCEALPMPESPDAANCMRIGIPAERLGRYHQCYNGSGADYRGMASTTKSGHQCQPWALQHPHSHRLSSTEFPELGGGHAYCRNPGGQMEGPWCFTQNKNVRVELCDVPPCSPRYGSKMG

[4] = target: T3, recombinant human ROR2 H349R (human, UniProt Q01974 34-403); test: dot blot on nylon membrane, anti-human IgG-HRP
T3 construct: Human residue replaced with the mouse residue
T3 sequence (Q01974 34-403 H349R limits assumed): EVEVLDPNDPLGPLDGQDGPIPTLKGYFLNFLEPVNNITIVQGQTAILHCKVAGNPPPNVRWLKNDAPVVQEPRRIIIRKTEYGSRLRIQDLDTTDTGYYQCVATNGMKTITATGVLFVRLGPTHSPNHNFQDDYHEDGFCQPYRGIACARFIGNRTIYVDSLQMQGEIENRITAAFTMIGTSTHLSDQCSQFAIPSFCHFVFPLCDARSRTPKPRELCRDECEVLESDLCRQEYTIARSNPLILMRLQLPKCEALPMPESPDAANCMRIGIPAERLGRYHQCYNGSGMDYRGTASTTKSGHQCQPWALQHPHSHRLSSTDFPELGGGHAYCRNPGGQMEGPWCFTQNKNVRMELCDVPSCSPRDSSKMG

[5] = target: recombinant human ROR2 D354E (human, UniProt Q01974 34-403); test: dot blot on nylon membrane, anti-human IgG-HRP
Chain of recombinant human ROR2 D354E (Q01974 34-403 D354E limits assumed): as the sequence (Q01974 34-403 H349R limits assumed) above, with R316H, D321E counted along it

human ROR2 [6] = target: T1, human ROR2; test: SPR; remark: listed apart in the source

T1 sequence (Q01974 34-403 limits assumed): as the sequence (Q01974 34-403 H349R limits assumed) above, with R316H counted along it

B1: h6E6-007 (antibody, human IgG1, V domains shown)
VH: EVQLVESGGGLVKPGGSLRLSCAASGFTFSGYGLSWVRQAPGKGLEWVSTISSGGGYTHYAPSVKGRFTISRDNAKNSLYLQMNSLRAEDTAVYYCARHPRDFSYAQDYWGQGTTVTVSS
VL: EIVMTQSPATLSVSPGERATLSCKASQDVGHYVAWYQQKPGQAPRLLIYWASTRATGIPARFSGSGSGTEFTLTISSLQSEDFAVYYCQQYNIYPWTFGQGTKVEIK
notes: human IgG1; also called clone 7
Kd (human ROR2 [1]): 318 pM | Kd (human ROR2 [2]): 318 pM | binding result (recombinant ROR1): no binding | binding result [3]: no binding | binding result [4]: no binding | binding result [5]: no binding

B3: grafted humanized 6E6: VH3-21*01 (extended) + VK1-12*01 (IMGT) (antibody, V domains shown)
VH: B1 VH with G31N, L34M, A61V, P62D, Q107M
VL: DIQMTQSPSSVSASVGDRVTITCRASQDVGHYLAWYQQKPGKAPKLLIYWASSLQSGVPSRFSGSGSGTDFTLTISSLQPEDFATYYCQQYNIYPWTFGQGTKVEIK
notes: expressed as IgG
Kd (human ROR2 [6]): 520 pM

B4: grafted humanized 6E6: VH3-11*03 (IMGT) + VK1-12*01 (extended) (antibody, V domains shown)
VH: B1 VH with E1Q, V5L, G31N, L34M, V37I, T50Y, H59N, P62D, Q107M
VL: B3 VL with R24K, L33V, S53T, L54R, Q55H, S56T
notes: expressed as IgG
Kd (human ROR2 [6]): 162000 pM

B6: grafted humanized 6E6: VH3-11*03 (IMGT) + VK1-12*01 (IMGT) (antibody, V domains shown)
VH: B1 VH with E1Q, V5L, G31N, L34M, V37I, T50Y, H59N, P62D, Q107M
VL: B3 VL
notes: expressed as IgG
Kd (human ROR2 [6]): 178000 pM

B7: h6E6-056 (antibody, human IgG1, V domains shown)
VH: B1 VH with G31K, L34T
VL: B1 VL with K24R
notes: human IgG1; also called clone 56
Kd (human ROR2 [1]): 24 pM | Kd (human ROR2 [2]): 24 pM | binding result (recombinant ROR1): no binding | binding result [3]: no binding | binding result [4]: no binding | binding result [5]: no binding

B9: grafted humanized 6E6: VH3-11*03 (extended) + VK1-8*01 (IMGT) (antibody, V domains shown)
VH: B1 VH with E1Q, V5L, G31N, L34M, V37I, A61V, P62D, Q107M
VL: B3 VL with D1A, Q3R, V11F, V15T, S53T, S77C, P80S
notes: expressed as IgG
Kd (human ROR2 [6]): 1100 pM

B11: h6E6-040 (antibody, human IgG1, V domains shown)
VH: B1 VH with G31S, L34H, Q107H
VL: B1 VL with K24R
notes: human IgG1; also called clone 40
Kd (human ROR2 [1]): 186 pM | Kd (human ROR2 [2]): 186 pM | binding result (recombinant ROR1): no binding | binding result [3]: no binding | binding result [4]: no binding | binding result [5]: no binding

B13: h6E6-090 (antibody, V domains shown)
VH: B1 VH with G31T, L34T, Q107L
VL: B1 VL with V33L, A55H
notes: also called clone 90
Kd (human ROR2 [2]): 178 pM

B14: h6E6-099 (antibody, V domains shown)
VH: B1 VH with G31N, L34M, S35N, Q107M
VL: B1 VL
notes: also called clone 99
Kd (human ROR2 [2]): 286 pM

B15: grafted humanized 6E6: VH3-11*03 (IMGT) + VK3-15*01 (IMGT) (antibody, V domains shown)
VH: B1 VH with E1Q, V5L, G31N, L34M, V37I, T50Y, H59N, P62D, Q107M
VL: B1 VL with K24R, V33L
notes: expressed as IgG
Kd (human ROR2 [6]): 64000 pM

B16: h6E6-055 (antibody, human IgG1, V domains shown)
VH: B1 VH with G31Q, L34H, P62E
VL: B1 VL with V33L
notes: human IgG1; also called clone 55
Kd (human ROR2 [1]): 261 pM | Kd (human ROR2 [2]): 261 pM | binding result (recombinant ROR1): no binding | binding result [3]: no binding | binding result [4]: no binding | binding result [5]: no binding

B19: h6E6-081 (antibody, V domains shown)
VH: B1 VH with G31S, L34M, S35N, P62D
VL: B1 VL with K24R, A55H
notes: also called clone 81
Kd (human ROR2 [2]): 62 pM

B20: h6E6-089 (antibody, V domains shown)
VH: B1 VH with G31D, L34I, A61V, P62Q, Q107M
VL: B1 VL with V33L
notes: also called clone 89
Kd (human ROR2 [2]): 2200 pM

B21: grafted humanized 6E6: VH3-11*03 (extended) + VK1-12*01 (extended) (antibody, V domains shown)
VH: B1 VH with E1Q, V5L, G31N, L34M, V37I, A61V, P62D, Q107M
VL: B3 VL with R24K, L33V, S53T, L54R, Q55H, S56T
notes: expressed as IgG
Kd (human ROR2 [6]): 2100 pM

B22: grafted humanized 6E6: VH3-21*01 (extended) + VK3-15*01 (IMGT) (antibody, V domains shown)
VH: B1 VH with G31N, L34M, A61V, P62D, Q107M
VL: B1 VL with K24R, V33L
notes: expressed as IgG
Kd (human ROR2 [6]): 580 pM

B23: h6E6-078 (antibody, V domains shown)
VH: B1 VH with G31A, L34S, Q107M
VL: B1 VL
notes: also called clone 78
Kd (human ROR2 [2]): 476 pM

B26: h6E6-029 (antibody, human IgG1, V domains shown)
VH: B1 VH with G31H, L34V, P62Q
VL: B1 VL with A55H
notes: human IgG1; also called clone 29
Kd (human ROR2 [1]): 79 pM | Kd (human ROR2 [2]): 79 pM | binding result (recombinant ROR1): no binding | binding result [3]: no binding | binding result [4]: no binding | binding result [5]: no binding

B28: grafted humanized 6E6: VH3-11*03 (extended) + VK3-15*01 (IMGT) (antibody, V domains shown)
VH: B1 VH with E1Q, V5L, G31N, L34M, V37I, A61V, P62D, Q107M
VL: B1 VL with K24R, V33L
notes: expressed as IgG
Kd (human ROR2 [6]): 1100 pM

B29: grafted humanized 6E6: VH3-21*01 (extended) + VK1-12*01 (extended) (antibody, V domains shown)
VH: B1 VH with G31N, L34M, A61V, P62D, Q107M
VL: B3 VL with R24K, L33V, S53T, L54R, Q55H, S56T
notes: expressed as IgG
Kd (human ROR2 [6]): 670 pM

B30: h6E6-082 (antibody, V domains shown)
VH: B1 VH with G31K, L34M, P62D, Q107M
VL: B1 VL with V33L, A55H
notes: also called clone 82
Kd (human ROR2 [2]): 812 pM

B31: h6E6-084 (antibody, V domains shown)
VH: B1 VH with G31Q, L34M, A61V, P62Q
VL: B1 VL with V33L
notes: also called clone 84
Kd (human ROR2 [2]): 108 pM

B33: grafted humanized 6E6: VH3-21*01 (extended) + VK1-8*01 (IMGT) (antibody, V domains shown)
VH: B1 VH with G31N, L34M, A61V, P62D, Q107M
VL: B3 VL with D1A, Q3R, V11F, V15T, S53T, S77C, P80S
notes: expressed as IgG
Kd (human ROR2 [6]): 10000 pM

B34: h6E6-097 (antibody, V domains shown)
VH: B1 VH with G31A, L34M, A61V, P62E, Q107M
VL: B1 VL
notes: also called clone 97
Kd (human ROR2 [2]): 96 pM

Second part, the binder after the results:

binding result (human ROR2 [6]): no binding
B2: grafted humanized 6E6: VH3-11*03 (IMGT) + VK1-8*01 (IMGT) (antibody, V domains shown)
VH: B1 VH with E1Q, V5L, G31N, L34M, V37I, T50Y, H59N, P62D, Q107M
VL: B3 VL with D1A, Q3R, V11F, V15T, S53T, S77C, P80S
notes: expressed as IgG

Kd (human ROR2 [2]): 73 pM
B5: h6E6-110 (antibody, V domains shown)
VH: B1 VH with G31H, L34V, P62E
VL: B1 VL with K24R, V33L
notes: also called clone 110

binding result (human ROR2 [6]): no binding
B8: grafted humanized 6E6: VH3-21*01 (IMGT) + VK1-12*01 (IMGT) (antibody, V domains shown)
VH: B1 VH with G31N, L34M, S35N, T50S, H59Y, P62D, Q107M
VL: B3 VL
notes: expressed as IgG

Kd (human ROR2 [2]): 151 pM
B10: h6E6-109 (antibody, V domains shown)
VH: B1 VH with G31N, L34T, A61V, P62T, Q107M
VL: B1 VL
notes: also called clone 109

binding result (human ROR2 [6]): no binding
B12: grafted humanized 6E6: VH3-21*01 (IMGT) + VK3-15*01 (IMGT) (antibody, V domains shown)
VH: B1 VH with G31N, L34M, S35N, T50S, H59Y, P62D, Q107M
VL: B1 VL with K24R, V33L
notes: expressed as IgG

Kd (human ROR2 [2]): 323 pM
B17: h6E6-117 (antibody, V domains shown)
VH: B1 VH with G31V, L34I, Q107M
VL: B1 VL
notes: also called clone 117

binding result (human ROR2 [6]): no binding
B18: grafted humanized 6E6: VH3-21*01 (IMGT) + VK1-8*01 (IMGT) (antibody, V domains shown)
VH: B1 VH with G31N, L34M, S35N, T50S, H59Y, P62D, Q107M
VL: B3 VL with D1A, Q3R, V11F, V15T, S53T, S77C, P80S
notes: expressed as IgG

Kd (human ROR2 [2]): 187 pM
B24: h6E6-115 (antibody, V domains shown)
VH: B1 VH with L34M, A61V, P62T, Q107L
VL: B1 VL with K24R, V33L
notes: also called clone 115

binding result (human ROR2 [6]): no binding
B25: grafted humanized 6E6: VH3-11*03 (extended) + VK1-12*01 (IMGT) (antibody, V domains shown)
VH: B1 VH with E1Q, V5L, G31N, L34M, V37I, A61V, P62D, Q107M
VL: B3 VL
notes: expressed as IgG

Kd (human ROR2 [2]): 642 pM
B27: h6E6-106 (antibody, V domains shown)
VH: B1 VH with G31S, L34I, H59Y, A61V, P62D, Q107L
VL: B1 VL
notes: also called clone 106

binding result (human ROR2 [6]): no binding
B32: grafted humanized 6E6: VH3-21*01 (IMGT) + VK1-12*01 (extended) (antibody, V domains shown)
VH: B1 VH with G31N, L34M, S35N, T50S, H59Y, P62D, Q107M
VL: B3 VL with R24K, L33V, S53T, L54R, Q55H, S56T
notes: expressed as IgG
